The source of these data is article PMC8769072, “Proteome‐scale mapping of binding sites in the unstructured regions of the human proteome” (Molecular Systems Biology, 2022).

pIC50, pKd, pKi: −log10 of the molar value.

The target of test [1] is FITC-labelled phospho-RAF1 255-264 probe peptide (FITC-QRSTpSTPNVH) (human). Nature of the test: fluorescence polarisation; saturation: protein in serial dilution added to FITC-labelled probe peptide (master mix with 10 nM probe and 2 mM DTT), 50 mM KPO4 or NaPO4 pH 7.5; fitted to a quadratic equation.
Test [2] concerns the target FITC-labelled NCOR2 1307-1322 probe peptide (FITC-…) (human). Described as above.
The target of test [3] is FITC-labelled Myc 320-328 probe peptide (FITC-…) (human). The test is described as above.
Test [4] has as its target importin subunit alpha‐3 (KPNA4) ARM domain (UniProt O00629). Nature of the test: FP competition against FITC-NCOR2 1307-1322 probe. Particulars: reference: unphosphorylated peptide.
The target in test [5] is MDM2 SWIB, cleaved from the His‐GST tag, for affinity measurements (human). Nature of the test: fluorescence polarisation; competition: unlabelled peptide in serial dilution displaces a FITC-labelled probe peptide from the bait domain (master mix with protein at four times the KD of the probe, 10 nM probe, 2 mM DTT); 50 mM KPO4 or NaPO4 pH 7.5; triplicates; probe for KEAP1 Kelch: FITC-NFE2L1 228-243, other probes in Dataset EV6.

For test [6], the target named is KPNA4 ARM (importin subunit alpha-3, armadillo repeat domain) (human) (UniProt O00629). Nature of the test: fluorescence polarisation; competition: unlabelled peptide in serial dilution against KPNA4 ARM (master mix at four times the KD) with the probe FITC-Myc(320-328), probe of the major pocket; 50 mM KPO4 pH 7.5; Ki calculated from IC50.
Test [7] shares this target. Nature of the test: fluorescence polarisation; competition: unlabelled peptide in serial dilution against KPNA4 ARM (master mix at four times the KD) with the probe FITC-NCOR2(1307-1322), probe of the minor pocket; 50 mM KPO4 pH 7.5; Ki calculated from IC50.

In test [1], “14-3-3 protein sigma (SFN 14-3-3) (from UniProt P31947 1-248) (domain or fragment)” had a pKd of 3.28.
As for “KPNA4 ARM domain, MBP-tagged (from UniProt O00629 1-521) (domain or fragment)”, the negative logarithm of the Kd (pKd) in test [2] was 6.64; in test [3], 7.52.
Turning to “NCOR1 class III NLS peptide (from UniProt O75376) pS1242 peptide”, the “binding against the reference” value in test [4] (sites S1242) is on record as “same”.
As to “NCOR1 class III NLS peptide (from UniProt O75376) pS1246 peptide”, the “binding against the reference” value in test [4] (sites S1246) was “weaker”.
For the substance “NCOR1 class III NLS peptide (from UniProt O75376) pY1247 peptide”, the “binding against the reference” value in test [4] (sites Y1247) was “same”.
In turn, “NUMB_(615–630) peptide, synthetic (from UniProt P49757 615-630)” gave a pKi in test [5] of 5.48.
Turning to SPRTN 400-416 peptide, the pIC50 in test [6] was 6.59.
Consider ZNF532 1139-1154 peptide, for which the pIC50 in test [7] was 5.89.
